The values below come from publication PMC9701222, “Molecular basis for DNA recognition by the maternal pioneer transcription factor FoxH1”.

Data set [1] concerns the target T1, FoxH1 FH domain (species not stated) (UniProt O75593).
T1 sequence: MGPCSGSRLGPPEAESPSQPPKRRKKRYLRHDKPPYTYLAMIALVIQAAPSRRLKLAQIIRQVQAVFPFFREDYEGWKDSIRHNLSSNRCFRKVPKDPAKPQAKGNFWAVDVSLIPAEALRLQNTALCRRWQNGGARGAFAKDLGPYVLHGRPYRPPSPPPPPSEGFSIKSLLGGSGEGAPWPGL
Kind of data set: BLI. As to conditions: BLI: 20 mM Tris pH 7.6, 100 mM NaCl, 2 mM DTT, 0.02% Tween-20, 0.01% BSA, 25 C; EMSA: 100 mM Tris, 10% glycerol, 7.5 nM Cy5-DNA, 4 C. A general note: Mobility shift assays separate free from complexed probe on a gel.

The next data set deals with T2, hFoxA2 FH (Homo sapiens) (UniProt Q9Y261).
T2 sequence: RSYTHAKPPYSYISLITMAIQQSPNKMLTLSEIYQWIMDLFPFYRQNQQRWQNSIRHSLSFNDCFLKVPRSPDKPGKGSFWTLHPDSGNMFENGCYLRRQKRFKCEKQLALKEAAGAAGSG
The data set is described as follows: BLI. As to conditions: BLI: 20 mM Tris pH 7.6, 100 mM NaCl, 2 mM DTT, 0.02% Tween-20, 0.01% BSA, 25 C; EMSA: 100 mM Tris, 10% glycerol, 7.5 nM Cy5-DNA, 4 C.

For data set [2], the target named is T3, dFoxH1 FH (Danio rerio, UniProt Q9I9E1 86-210).
T3 sequence: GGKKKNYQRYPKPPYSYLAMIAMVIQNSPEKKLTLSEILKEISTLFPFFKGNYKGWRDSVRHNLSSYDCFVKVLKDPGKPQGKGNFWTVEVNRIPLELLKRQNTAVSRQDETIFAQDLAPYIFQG
Kind of data set: X-ray; BLI: 20 mM Tris pH 7.6, 100 mM NaCl, 2 mM DTT, 0.02% Tween-20, 0.01% BSA, 25 C; EMSA: 100 mM Tris, 10% glycerol, 7.5 nM Cy5-DNA, 4 C. Conditions: protein: recombinant; tags: His-SUMO removed (Ulp1); blunt.

Data set [3] concerns the target T4, hFoxA2 FH (Homo sapiens, UniProt Q9Y261 153-273).
T4 sequence: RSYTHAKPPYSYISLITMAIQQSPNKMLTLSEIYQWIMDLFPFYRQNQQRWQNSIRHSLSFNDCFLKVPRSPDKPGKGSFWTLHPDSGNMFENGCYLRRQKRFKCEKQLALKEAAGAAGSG
Described as above. Conditions: protein: recombinant; tags: His-SUMO removed (Ulp1); blunt.

Data set [4] concerns the target T4, hFoxA2 FH. Kind of data set: EMSA; BLI: 20 mM Tris pH 7.6, 100 mM NaCl, 2 mM DTT, 0.02% Tween-20, 0.01% BSA, 25 C; EMSA: 100 mM Tris, 10% glycerol, 7.5 nM Cy5-DNA, 4 C. Conditions: protein: recombinant; tags: His-SUMO removed (Ulp1); label: 5'-Cy5.
Data set [5] addresses T3, dFoxH1 FH. Kind of data set: X-ray; K+; BLI: 20 mM Tris pH 7.6, 100 mM NaCl, 2 mM DTT, 0.02% Tween-20, 0.01% BSA, 25 C; EMSA: 100 mM Tris, 10% glycerol, 7.5 nM Cy5-DNA, 4 C. Conditions: protein: recombinant; tags: His-SUMO removed (Ulp1); blunt.
Data set [6] deals with T4, hFoxA2 FH. Kind of data set: BLI; BLI: 20 mM Tris pH 7.6, 100 mM NaCl, 2 mM DTT, 0.02% Tween-20, 0.01% BSA, 25 C; EMSA: 100 mM Tris, 10% glycerol, 7.5 nM Cy5-DNA, 4 C. Conditions: protein: recombinant; tags: His-SUMO removed (Ulp1); label: 5'-biotin (BLI). Background: Biolayer interferometry detects binding as a change in optical thickness at a sensor tip.

As usually defined, the Kd is a measure of binding affinity in units of concentration. In the case of “ACAAGGCCTGAAAAGAGATTGTGGATTGCGAATTAATGAAATTAACCTAATCTTTTCCATTCGGCAGCCGGGCCGCGGGCCGGCCGAGCTGGGCGGGCGGCCTAATTGCCTTGGTTAATCTCATTAATTCCTTTGTGCCGCCGCAGTTAACAACTCCCTCCGCCCGA (double strand) [Gsc167 nucleosome]”, the Kd in data set [1] came to 5 nM; with hFoxA2 FH (Homo sapiens), 30 nM. In turn, “ACAAGGCCTGAAAAGAGATTGTGGATTGCGAATTAATGAAATTAACCTAATCTTTTCCATTCGGCAGCCGGGCCGCGGGCCGGCCGAGCTGGGCGGGCGGCCTAATTGCCTTGGTTAATCTCATTAATTCCTTTGTGCCGCCGCAGTTAACAACTCCCTCCGCCCGA (double strand) [Gsc167 linear DNA]” showed a dissociation constant Kd in data set [1] of 13 nM.

B1: FKH-TTACT-GSCflank (dsDNA)
DNA 1: AGATTGTTTACTGAGA
DNA 2: TCTCAGTAAACAATCT
Turning to B1, the binding result in the data set with dFoxH1 FH [2] and in the data set with hFoxA2 FH [3] was “binds” throughout.

B2: TT forkhead DNA, 16 bp (EMSA) (dsDNA)
DNA 1: AGATTGTTTACTGAGA
DNA 2: TCTCAGTAAACAATCT
Regarding B2, in the data set with hFoxA2 FH [4], the binding result is “binds”.

B3: dGSC-TT-16a (dsDNA)
DNA 1: AGATTGTTTATTGAGA
DNA 2: TCTCAATAAACAATCT
Consider B3, for which the binding result with dFoxH1 FH [2] and with hFoxA2 FH [3] was “binds” in each case.

B4: dGSC-GG-16a (dsDNA)
DNA 1: AGATTGTGGATTGAGA
DNA 2: TCTCAATCCACAATCT
Turning to B4, the binding result with dFoxH1 FH [5] is listed as “binds”.

B5: Gsc167 linear DNA (dsDNA)
DNA 1: ACAAGGCCTGAAAAGAGATTGTGGATTGCGAATTAATGAAATTAACCTAATCTTTTCCATTCGGCAGCCGGGCCGCGGGCCGGCCGAGCTGGGCGGGCGGCCTAATTGCCTTGGTTAATCTCATTAATTCCTTTGTGCCGCCGCAGTTAACAACTCCCTCCGCCCGA
DNA 2: TCGGGCGGAGGGAGTTGTTAACTGCGGCGGCACAAAGGAATTAATGAGATTAACCAAGGCAATTAGGCCGCCCGCCCAGCTCGGCCGGCCCGCGGCCCGGCTGCCGAATGGAAAAGATTAGGTTAATTTCATTAATTCGCAATCCACAATCTCTTTTCAGGCCTTGT
As to B5, the Kd in the data set with hFoxA2 FH [6] is 800 nM.

B6: dGSC-GT-16a (dsDNA)
DNA 1: AGATTGTGTATTGAGA
DNA 2: TCTCAATACACAATCT
Regarding B6, in the data set with dFoxH1 FH [5], the binding result is reported as “binds”.
